Laboratory results: patent US20110243928A1 (published 2011)

T1: alanine scanning peptide 67 (human, N-terminal biotin)
T1 construct: the entry already carries the change; also called R107A peptide
T1 peptide: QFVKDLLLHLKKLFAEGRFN

T2: alanine scanning peptide 1 (parental sequence peptide) (human, N-terminal biotin)
T2 construct: also called parental peptide
T2 peptide: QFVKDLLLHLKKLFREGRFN

T3: alanine scanning peptide 65 (human, N-terminal biotin)
T3 construct: the entry already carries the change; also called L105A peptide
T3 peptide: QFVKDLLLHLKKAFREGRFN

T4: alanine scanning peptide 66 (human, N-terminal biotin)
T4 construct: the entry already carries the change; also called F106A peptide
T4 peptide: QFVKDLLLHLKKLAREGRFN

T5: alanine scanning peptide 68 (human, N-terminal biotin)
T5 peptide: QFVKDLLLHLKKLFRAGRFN

T6: alanine scanning peptide 63 (human, N-terminal biotin)
T6 construct: the entry already carries the change; also called K103A peptide
T6 peptide: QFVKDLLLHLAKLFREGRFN

T7: alanine scanning peptide 62 (human, N-terminal biotin)
T7 peptide: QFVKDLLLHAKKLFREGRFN

T8: alanine scanning peptide 64 (human, N-terminal biotin)
T8 construct: the entry already carries the change; also called K104A peptide
T8 peptide: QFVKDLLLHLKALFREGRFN

T9: E. coli-expressed recombinant cynomolgus IL-13 (cynomolgus, UniProt Q5I6E4 21-132 (Macaca thibetana entry))
T9 construct: also called cyno IL13 (CA); cIL-13
T9 chain: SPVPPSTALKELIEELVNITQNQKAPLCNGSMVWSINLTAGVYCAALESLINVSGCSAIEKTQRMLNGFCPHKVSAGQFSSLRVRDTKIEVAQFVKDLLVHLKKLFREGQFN

T10: 16mer biotinylated human IL-13 peptide number 24 (human, N-terminal biotin; C-terminal amide)
T10 construct: format Biotin-SGSG-PEPTIDE-amide; also called Peptide 24
T10 peptide: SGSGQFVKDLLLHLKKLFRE


Columns and labels:
[1] = target: T11, E. coli-expressed recombinant det-1 tagged human IL-13 (human, UniProt P35225 35-146); test: competition ELISA: inhibition of det-1 tagged human IL-13 binding to human IL-13Rα1-Fc
T11 construct: also called Det-1 tagged human IL-13 (made in-house); not shown: det-1 tag

[2] = target: T12, E. coli-expressed recombinant human IL-13 (human, UniProt P35225 35-146); test: human IL-13 binding sandwich ELISA
T12 construct: Untagged E. coli-expressed human IL-13; also called hIL-13; human IL13 (CA)

[3] = target: T13, native (PBMC derived) human IL-13 (human, UniProt P35225 35-146, limits assumed); test: ELISA on Th2 cell supernatant read against a standard curve
T13 construct: IL-13 in supernatant of stimulated human CD4+ Th2 cells; also called native human IL-13; Native IL-13

[4] = target: T1, alanine scanning peptide 67; test: alanine scanning peptide ELISA, n=2
Description: (§1) An ELISA method was used to detect binding of immobilised biotinylated peptide to the parental mAb 6A1 and L1+A1.
(§2) This was to determine if there was any major plate-to-plate variation and in both cases, there was no apparent variation.

[5] = target: T2, alanine scanning peptide 1 (parental …); test: alanine scanning peptide ELISA, n=2
Description: as §1, §2

[6] = target: T3, alanine scanning peptide 65; test: alanine scanning peptide ELISA, n=2
Description: as §1, §2

[7] = target: T4, alanine scanning peptide 66; test: alanine scanning peptide ELISA, n=2
Description: as §1, §2

[8] = target: T5, alanine scanning peptide 68; test: alanine scanning peptide ELISA, n=2
Description: as §1, §2

[9] = target: T6, alanine scanning peptide 63; test: alanine scanning peptide ELISA, n=2
Description: as §1, §2

[10] = target: T7, alanine scanning peptide 62; test: alanine scanning peptide ELISA, n=2
Description: as §1, §2

[11] = target: T8, alanine scanning peptide 64; test: alanine scanning peptide ELISA, n=2
Description: as §1, §2

[12] = target: T9, E. coli-expressed recombinant …; test: cynomolgus IL-13 binding sandwich ELISA
[13] = target: T10, 16mer biotinylated human IL-13 peptide …; test: BIAcore analysis 3, antibody over biotinylated peptide on SA chip
Procedure: Completed for the 16mer biotinylated human IL-13 peptide number 24 (identified as the linear binding epitope for parental mAb 6A1, see section 6.7). Note that the absolute KD values obtained for binding to peptide ligands are often quite different to those seen for binding to whole protein targets.
The kinetics analysis was performed on a Biacore 3000 machine using direct binding of antibody to immobilised IL-13 peptide. Briefly, IL-13 biotinylated peptide was captured using a Biacore SA (strepavidin) Biosensor chip. The antibodies were then passed over the sensor surface at various concentrations. The subsequent binding curves were analysed with Biacore analysis software BIAeval 4.1 to determine kinetics. The experiment was carried out using Biacore HBS-EP buffer

[14] = target: T9, E. coli-expressed recombinant …; test: cell-based or functional assay
[15] = target: T12, E. coli-expressed recombinant human …; test: cell-based or functional assay
[16] = target: mammalian-expressed (CHO cell) human IL-13 (human, UniProt P35225 35-146, limits assumed); test: cell-based or functional assay
[17] = target: E. coli-expressed recombinant Q130 human IL-13 (human, UniProt P35225 35-146, limits assumed); test: cell-based or functional assay
[18] = target: T11, E. coli-expressed recombinant det-1 …; test: competition ELISA: inhibition of det-1 tagged human IL-13 binding to human IL-13Rα2-Fc

T11 sequence (P35225 other isoform, or with tags, fused parts or gaps): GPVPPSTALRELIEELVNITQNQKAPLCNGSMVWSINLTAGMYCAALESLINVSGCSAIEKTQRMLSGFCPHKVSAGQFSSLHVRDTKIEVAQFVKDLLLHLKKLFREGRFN
T12 sequence (P35225 other isoform, or with tags, fused parts or gaps): as above
Sequence of E. coli-expressed recombinant Q130 human IL-13 (P35225 35-146 limits assumed): as the sequence (P35225 other isoform, or with tags, fused parts or gaps) above, with R110Q counted along it
Sequence of mammalian-expressed (CHO cell) human IL-13 (P35225 other isoform, or with tags, fused parts or gaps limits assumed): as the sequence (P35225 other isoform, or with tags, fused parts or gaps) above
T13 sequence (P35225 other isoform, or with tags, fused parts or gaps limits assumed): as the sequence (P35225 other isoform, or with tags, fused parts or gaps) above

| IC50 [1] [µg/mL] | EC50 [2] [µg/mL] | Native IL-13 (ng/ml) detected in Th2 supernatant [3] [ng/mL] | Average A490 [4] [A490] | Average A490 [5] [A490] | Average A490 [6] [A490] | Average A490 [7] [A490] | Average A490 [8] [A490] | Average A490 [9] [A490] | Average A490 [10] [A490] | Average A490 [11] [A490] | EC50 [12] [µg/mL] | Kd [13] [nM] | koff [13] [s⁻¹] | kon [13] [M⁻¹ s⁻¹] | Mean ND50 for 2 assays [14] [µg/mL] | Mean ND50 for 2 assays [15] [µg/mL] | Mean ND50 for 2 assays [16] [µg/mL] | Mean ND50 for 2 assays [17] [µg/mL] | IC50 [18] [µg/mL] | Binder |
| --- | --- | --- | --- | --- | --- | --- | --- | --- | --- | --- | --- | --- | --- | --- | --- | --- | --- | --- | --- | --- |
| 0.039 | 0.049 | 22.5 | 0.595 | 3.54 | 3.85 | 3.6 | 3.58 | 3.28 | 3.49 | 1.47 | 0.039 | 3.11 | 0.000915 | 295000 | 0.078 | 0.193 | 0.44 | 0.213 | 0.02 | monoclonal antibody 6A1 (antibody, IgG1, V domains shown, also called 6A1 parental mAb; parental mouse mAb 6A1) VH: EIQLQQSVAELVRPGASVRLSCTASGFYIKDTYMHWVIQRPEQGLEWIGTIDPANGNTKYVPKFQGKATITADTSSNTAYLRLSSLTSEDTAIYYCARSIYDDYHYDDYYAMDYWGQGTSVTVSS VL: DVLMTQTPLSLPVSLGDQASISCRSSQNIVHINGNTYLEWYLQKPGQSPKLLIYKISDRFSGVPDRFSGSGSGTDFTLKISRVEAEDLGVYYCFQGSHVPWTFGGGTKLEIK |
| 0.044 | 0.018 | 25.1 | 0.816 | 2.85 | 3.02 | 2.84 | 2.81 | 2.65 | 2.83 | 1.82 | 0.021 | 9.03 | 0.0017 | 195000 | 0.078 | 0.428 | 0.975 | 0.438 | 0.113 | L1+A1 (antibody, human IgG1, kappa, V domains shown, Humanised 6A1, VH construct A1 and VL construct L1, human gamma1 wild type / kappa constant regions; also called A1L1; humanised anti-IL-13 mAb L1+A1) VH: QVQLVQSGAEVKKPGSSVKVSCKASGFYIKDTYMHWVRQAPGQGLEWMGTIDPANGNTKYVPKFQGRVTITADESTSTAYMELSSLRSEDTAVYYCARSIYDDYHYDDYYAMDYWGQGTLVTVSS VL: DIVMTQSPLSLPVTPGEPASISCRSSQNIVHINGNTYLEWYLQKPGQSPRLLIYKISDRFSGVPDRFSGSGSGTDFTLKISRVEADDVGIYYCFQGSHVPWTFGQGTKLEIKR |
